Measurements from the supplement of paper PMC10724198.
± gives the standard deviation of the averaged measurements.

tested on: Saccharomyces cerevisiae; assay: protein stability index of tFT-peptide fusion (C-terminal peptide) (PSI (0-1 scale)); higher = more stable (slower turnover); conditions: genetic background: wild type; temperature: 30 C
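Also: PSI is a weighted mean of sequencing reads over stability bins, variants kept only with over 10 reads, mCherry proximal and sfGFP distal, peptide attached via GGGS linker.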

Row | Sequence | protein stability index
1 | VVWSGWGCGGVR | 0.619 ± 0.015
2 | WVMREIVFGSLY | 0.698 ± 0.017
3 | GAWFTSSPVFGS | 0.731 ± 0.034
4 | LLGRPILINRPL | 0.661 ± 0.0083
5 | PPPPPPPRGPPR | 0.627 ± 0.014
6 | FFCILCAHWFPL | 0.589 ± 0.086
7 | HRAPACEHDIKK | 0.705 ± 0.015
8 | IIRKQQAKKVEL | 0.681 ± 0.025
9 | VLRGYRRVGVPP | 0.616 ± 0.016
10 | FPVPPPPHPPLH | 0.675 ± 0.027
11 | KVKREEKRKRED | 0.712 ± 0.033
12 | GTDSFQTTRRLI | 0.663 ± 0.022
13 | VEEYKKRNNKEG | 0.64 ± 0.01
14 | RCTNSLPSYLSH | 0.675 ± 0.039
15 | PHTLKPNPLSTA | 0.61 ± 0.063
16 | RLRQTLPTWVTT | 0.665 ± 0.015
17 | YKPLKNKDEEMD | 0.6127 ± 0.00088
18 | GKGDEPKAPTDR | 0.65 ± 0.028
19 | VSCLFFFVSIPF | 0.5176 ± 0.0035
20 | VKESILVGRYDC | 0.709 ± 0.016
21 | GDRSKECAMKNG | 0.67 ± 0.013
22 | SGILRSLAYPPD | 0.6142 ± 0.0035
23 | FVVLALKESFSV | 0.605 ± 0.057
24 | PPPTPSDPQNSS | 0.644 ± 0.007
25 | VDHIKAHSDSEE | 0.756 ± 0.1
26 | PPSPPVPRFSLL | 0.69503 ± 0.00011

Row | Sequence | protein stability index
27 | IFGMSIMLNRIT | 0.541 ± 0.041
28 | GLSSRQHPAPTT | 0.693 ± 0.05
29 | LLLFPLPLLPFH | 0.686 ± 0.037
30 | GTIEFNKIEDFW | 0.715 ± 0.039
31 | RARAIGVGAGRG | 0.691 ± 0.019
32 | LQHSLNRKEIET | 0.688 ± 0.014
33 | WQNKKDNGKIRG | 0.724 ± 0.11
34 | PLCVICRRWGAS | 0.646 ± 0.046
35 | RRWSPPGLGCIE | 0.735 ± 0.019
36 | DLARSLVQSLSG | 0.675 ± 0.017
37 | VVRARLYVWWLG | 0.664 ± 0.13
38 | AQELPGGAGGDG | 0.659 ± 0.031
39 | LIGRPLPRTFMH | 0.766 ± 0.074
40 | WVNWRWRAVVPG | 0.6188 ± 0.0025
41 | PLPPLLAGAGLS | 0.704 ± 0.018
42 | PRVTPRFSKHAL | 0.724 ± 0.016
43 | SVPYALPTTPPR | 0.676 ± 0.045
44 | LLSNDNRIKTIR | 0.725 ± 0.047
45 | PPATPPPPPPFL | 0.68 ± 0.15
46 | GHYLLCPQGQSD | 0.6675 ± 0.0024
47 | EGGAGGGVWGLG | 0.819 ± 0.11
48 | SWTCSPLKSFHS | 0.734 ± 0.049
49 | PVSSPLVFLLSI | 0.625 ± 0.045
50 | WVGAGGGSGYGR | 0.677 ± 0.018
51 | PSPPTPLPSRLF | 0.7829 ± 0.0037
52 | SPPLPAPPPPIP | 0.60339 ± 3.2e-05

Row | Sequence | protein stability index
53 | PLSCFIPPVSSW | 0.666 ± 0.027
54 | PPFRPFTSPVTY | 0.579 ± 0.031
55 | SQPIRAMILRVP | 0.53 ± 0.00096
56 | LMQTGVNNQNTT | 0.72 ± 0.035
57 | RSGVSCPRVDDR | 0.643 ± 0.05
58 | SSSVPHFIFLPR | 0.656 ± 0.028
59 | CRSRRIVGPDSR | 0.669 ± 0.015
60 | DRVLRGAIWVSV | 0.571 ± 0.045
61 | PRPFPLSCSPPV | 0.751 ± 0.083
62 | SPRGPLVICHHP | 0.745 ± 0.075
63 | TPTPPPSFLHGS | 0.663 ± 0.046
64 | RTKLFGIVGRQL | 0.659 ± 0.036
65 | ALFCLLLPPPSP | 0.724 ± 0.008
66 | LWAGGVAVAVSR | 0.638 ± 0.045
67 | GVVRWGRVVGCF | 0.631 ± 0.084
68 | VTNGGGMGWYRR | 0.652 ± 0.078
69 | HPPPPRLPPRPP | 0.63 ± 0.02
70 | PPPPPHHRPPSS | 0.709 ± 0.077
71 | GGDRGHVTGEVG | 0.657 ± 0.06
72 | VDGLRASRFVGS | 0.7 ± 0.048
73 | PLLYSDRPSIFL | 0.663 ± 0.026
74 | RPRPPLASPSPP | 0.7005 ± 0.0013
75 | CSAVVPASARTP | 0.606 ± 0.019
76 | SVPSRSSAALCS | 0.714 ± 0.067
77 | PPPPHSFTPSGH | 0.673 ± 0.12
78 | RFPLTPSPLRAT | 0.6948 ± 0.0039

Row | Sequence | protein stability index
79 | VSVIRIVPPEFI | 0.672 ± 0.03
80 | SLALSAGFSIYL | 0.6693 ± 0.0062
81 | LSPSGATFWTPS | 0.676 ± 0.055
82 | KQPGAGGGEVGG | 0.6555 ± 0.002
83 | GGRGWAGRGGSG | 0.707 ± 0.052
84 | PGAGGLSLVVRR | 0.654 ± 0.053
85 | LAHACQRRQTEA | 0.786 ± 0.11
86 | VFTSPPPLPSPP | 0.728 ± 0.029
87 | AAPHDVARPTTR | 0.689 ± 0.015
88 | GLIRGFLRYPGM | 0.691 ± 0.033
89 | SIKKKQKIKLTK | 0.689 ± 0.02
90 | GYSFWSCVAFFS | 0.628 ± 0.0068
91 | DIKAISVKYTIQ | 0.6127 ± 0.0056
92 | SPPPPTSPRPLT | 0.709 ± 0.0085
93 | PSTDARRQRLRR | 0.721 ± 0.049
94 | KKKKKEKKQERK | 0.69526 ± 0.00024
95 | NALLHPRSHLAF | 0.686 ± 0.033
96 | GGRGRRRGGVGG | 0.701 ± 0.011
97 | MGVGCFCCLFVG | 0.541 ± 0.011
98 | PLPPPPPLPLSP | 0.693 ± 0.07
99 | GLGMWSVRCAGW | 0.649 ± 0.0067
100 | FFSLISVFCPYP | 0.533 ± 0.065
101 | NGQVAGVGNVAW | 0.678 ± 0.015
